Experimental data: patent US20260317430 (published 2026)

Experiments:
[1] = molecular target: T1, human FGFR2b extracellular domain (human, UniProt P21802); experiment: BLI
mouse FGFR2b = molecular target: T2, mouse FGFR2b (mouse, UniProt P21803); experiment: BLI
T2 chain: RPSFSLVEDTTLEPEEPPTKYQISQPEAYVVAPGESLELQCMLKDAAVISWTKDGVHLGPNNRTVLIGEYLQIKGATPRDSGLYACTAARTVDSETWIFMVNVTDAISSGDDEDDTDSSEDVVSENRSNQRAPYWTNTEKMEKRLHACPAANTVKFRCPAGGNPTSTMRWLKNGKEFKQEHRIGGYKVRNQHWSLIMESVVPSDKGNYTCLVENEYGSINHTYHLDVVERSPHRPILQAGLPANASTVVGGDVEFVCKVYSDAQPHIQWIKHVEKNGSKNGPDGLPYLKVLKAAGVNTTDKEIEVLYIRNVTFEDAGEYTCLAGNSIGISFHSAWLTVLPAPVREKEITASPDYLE

[2] = molecular target: human FGFR2b on KATO III cells (human, UniProt P21802); experiment: FACS
Sequence of human FGFR2b on KATO III cells (P21802 22-377): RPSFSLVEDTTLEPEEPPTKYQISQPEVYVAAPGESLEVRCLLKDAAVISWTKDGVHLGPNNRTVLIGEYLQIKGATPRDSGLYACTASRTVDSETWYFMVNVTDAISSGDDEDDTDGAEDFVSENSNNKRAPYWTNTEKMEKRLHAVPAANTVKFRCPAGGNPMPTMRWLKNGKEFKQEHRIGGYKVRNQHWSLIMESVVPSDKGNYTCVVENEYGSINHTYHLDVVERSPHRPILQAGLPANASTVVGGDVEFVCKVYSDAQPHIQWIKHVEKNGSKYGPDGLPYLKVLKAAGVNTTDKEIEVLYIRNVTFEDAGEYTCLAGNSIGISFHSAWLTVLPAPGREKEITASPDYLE

[3] = molecular target: T1, human FGFR2b extracellular domain; experiment: ELISA

T1 sequence (P21802 22-377): as above

B1: 3G10 (antibody, V domains shown)
VH: EVQLQQSGPELVKPGASVKMSCKASGYTFATYNMHWVKQTTGQGLEWIGAIYPDNGDTFYNRKFKDKATLTADKSSTTAYMQLSSLTSEDSAVYYCARGDFAYWGQGTLVTVSA
VL: DVLMTQSPASLSASVGETVTITCGASENIYGALNWYQRKQGKSPQLLIYGATNLADGMSSRFSGSGSGRQYSLKISSLHPDDVATYYCQNVLSTPYTFGGGTKLEMK
For B1, the Kd [1] was 6.25 nM, the Kd (mouse FGFR2b) was 41.9 nM and the EC50 [2] was 0.149 µg/mL. The EC50 [3] was 0.0276 µg/mL.

B2: 3E2 (antibody, V domains shown)
VH: EIQLQQSGAELVKPGASVKMSCKASGYTFSFYNMHWVKRTPGQGLEWIGLIYPDNGDTSYNQKFKGKATLTADTSSSTAYMQLSSLTSEDSAVYYCARGGLDYWGQGTSLTVSS
VL: NIVMTQSQKFMSTSVGDRVSVTCKASQNVGTNVAWYQQKPGQSPKALIYSASYRYTGVPDRFTGSGSGTDFTFTISSVQAEDLAVYYCQQHYSTPYTFGGGTKLEIK
Binder B2 has a Kd [1] of 4.45 nM, a Kd (mouse FGFR2b) of 36.5 nM and an EC50 [2] of 0.236 µg/mL. For the same binder, the EC50 [3] was 0.0235 µg/mL.

B3: 1C10 (antibody, V domains shown)
VH: QVQLQQSGAELVKPGASVKMSCKASGYTFRYYNMHWVKRTPGQGLEWIGLIYPDNGDTSYNQKFKGKATLTADTSSSTAYMQLSSLTSEDSAVYYCARGGLDYWGQGTSLTVSS
VL: DIVMTQSPASLSASVGETVTITCRASGNIHNYLAWYQQKQGKSPQLLVYNAKTLADGVPSRFSGSGSGTQYSLKINSLQPEDFGSYYCQHFWSTPYTFGGGTKLEMK
With B3 the Kd [1] was 11.1 nM, the Kd (mouse FGFR2b) was 75.6 nM and the EC50 [2] was 0.152 µg/mL. For the same binder, the EC50 [3] was 0.0159 µg/mL.
